This assay has as its target T1, recombinant α catalytic subunit of rabbit protein phosphatase 1 (Ppp1ca) (rabbit, UniProt P62139 1-330).
T1 construct: α catalytic subunit of protein phosphatase 1 (Ppp1ca), rabbit, recombinant; also called PP1A; Protein Phosphatase 1 Catalytic Subunit, α-isoform; source: bought: MilliporeSigma, P7937 (recombinant)
Kind of assay: pull-down; GST-(N) NCC or GST alone on glutathione-agarose beads with 2–10 μg recombinant phosphatase; 12- to 18-hour incubation in PBS with 0.5 mM TCEP at 4°C; bound protein detected by Western blotting. As to conditions: both partners purified. On the technique in general: Immunoblotting shows a protein as a band on a membrane.

T1 sequence (P62139 whole entry, canonical isoform): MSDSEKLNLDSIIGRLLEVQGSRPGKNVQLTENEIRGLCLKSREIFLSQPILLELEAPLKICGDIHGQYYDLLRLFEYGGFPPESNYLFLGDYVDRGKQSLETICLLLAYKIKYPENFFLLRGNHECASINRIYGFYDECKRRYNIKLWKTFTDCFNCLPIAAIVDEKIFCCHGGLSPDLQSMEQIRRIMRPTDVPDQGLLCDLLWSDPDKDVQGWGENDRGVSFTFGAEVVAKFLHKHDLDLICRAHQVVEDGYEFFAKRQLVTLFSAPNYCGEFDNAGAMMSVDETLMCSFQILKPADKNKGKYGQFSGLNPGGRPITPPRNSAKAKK

B1: GST fusion protein of the cytoplasmic amino terminus of rat NCC (amino acids 1-133) (domain or fragment, UniProt P55018 1-133, looked up)
chain: MAELPVTEMPGDALCSGRFTISTLLGGDEPPPAACDNSQPSHLTHGSTLYLRTFGYNTIDVVPAYEHYANSALPGEPRKVRPTLADLHSFLKQEGSHLHALAFDGRPGHELTDGLVEDETGANSEKSPGEPVR
notes: thiazide-sensitive sodium chloride cotransporter NCC (SLC12A3), rat, NP_062218, cytoplasmic amino terminus, amino acids 1-133; cloned into pGEX4T1; also called GST-NCC-(N); GST-(N) NCC; source: E. coli C43 (DE3), recovered by glutathione chromatography, kept on beads
Turning to B1, the binding result is “binds”.

The values are drawn from article PMC10617769, “Dietary potassium stimulates Ppp1Ca-Ppp1r1a dephosphorylation of kidney NaCl cotransporter and reduces blood pressure” (The Journal of Clinical Investigation, 2023).
